The nanobody polyreactivity screen of Harvey et al. (2022)

Assay: yeast display, Sf9 membrane polyspecificity reagent, FACS + sequencing; frameworks hold sequencing errors
Summary of the method: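 Genes from sorted yeast were amplified by colony PCR, read by MiSeq 2 × 250 sequencing and filtered on CDR length. These cells carried a synthetic nanobody library in Saccharomyces cerevisiae BJ5465 and were sorted by FACS into low and high (top ~1%) gates on anti-HA and streptavidin fluorescence. Polyreactivity is labelled according to the gate of origin.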

Sequence	polyreactivity (PSR sort gate)
QVQLVESGGGLVQAGGSLRLSCAASGYTFYRNAMGWYRQAPGKERELVASLRDDGSTYYADSEKGRFTISRDNAKNTVYLHMNSLKPEDTAVYYCNSDYPYIWHKGARYWHENDYWGQGTQVTVSS	low polyreactivity
QVQLVESGGGLVQAGGSLRLSCAASGYTFYVYAMGWYRQAPGKERELVADISTSDGSTYYADSVKGRFTISRDNAKNTVYLQMNSLKPEDTAVYYCNTDGSHGLYDWFWPANNDDWGQGTQVSVSS	low polyreactivity
QVQLVESGGGLVQAGGSLRLSCAASGYTIRGYVMGWYRQAPGKERELVAAISASGGRTYYADSVKGRFTISRDNAKNTVYLQMNSLKPEHTAVYYCAASKSKISSLDYWGQGTQVTVSS	high polyreactivity
QVQLVESGGGLVQAGGSLRLSCAASGYTIYRYAMGWYRQAPGNERELVAAISSAGTTNYADSVKGRFTISRDNAKNTVYLQINSLKPEDTAVYYCNKRGRNHNSLKYGYWGQGTQVTVSS	high polyreactivity
QVQLVESGGGLVQAGGSLRLSCAASGYTIYYYAMGWYRQAPGKERELVARITSGGSTYYADSVKGRFTISRDNAKNTVYLQMNSLKPVDTAVYYCNVEVSVEVAYWGQGTQVTVSS	low polyreactivity
QVQLVESGGGLVQAGGSLRLSCAASGYTLRYYAMGWYRQAPGKERELVAAITYSGGSTYYADSVKGRFTISRDHAKNTVYLQMNSLKPEDTAVYYCAADYRAPLDYWGQGTQVTVSS	low polyreactivity
QVQLVESGGGLVQAGGSLRLSCAASGYTQPANGMGLYRQAPGKERELVAAISFIAGSTYYADSVKGRFTISRDNAKNTVYLQMNSLKPEDTAVYYCATQFPPSTIYDYWGQGTQVSVSS	low polyreactivity
QVQLVESGGGLVQAGGSLRLSCAASGYTSYRYAMGWYRQAPGKERELVAAINWSGSSTYYADSVKGRFTISRDYAKNTVYLQMNSLKPEDTAVYYCAARRYRSPIGGYDYWGQGTQVTVSS	high polyreactivity
QVQLVESGGGLVQAGGSLRLSCAASGYTYPYYTMGWYRQAPGKERELVAAISSGGRTKYADSVKGRFTISRDNAKNTVYLQMNSLKPEDTAVYYCAKSGNYRTGRFDYWGQGTQVTVSS	high polyreactivity
QVQLVESGGGLVQAGGSLRLSCAASMGLYRQAPGKERDLVATITSDAGTNYADSVKGRFTISRDNAKNTVYLQRNSLKPEDTAVYYCNADGYDSSDFGEGDYWGQVTQVTVSS	low polyreactivity
QVQLVESGGGLVQAGGSLRLSCAASMGWYRQAPGKERELVAITRTTRTYYADSVKGRFTISRDNAKNTVYLQMNSLKPVDTAVYYCAAPNGPSPYWYNYWGQGTQVTVSS	low polyreactivity
QVQLVESGGGLVQAGGSLRLSCAASPLTFRYYDMGWYRQAPGKERELVAAISRTGRTNYADSVKGRFTISRDNAKNTVYVQMNSLKPEDTAVYYCAATGIYAKALLWYDYWGQGTQVTVSS	high polyreactivity
QVQLVESGGGLVQAGGSLRLSCAASRFIFSWYAMGWYRQAPGTERELVATISSSGGRTHYADSVKGRFTISRDNAKNTVDLHMKSLKPEVTEVYYCAAHPFYYFTTVYYWGQGTQVTVSS	high polyreactivity
QVQLVESGGGLVQAGGSLRLSCAASRGIFGYNAMGWYRQAPGKERELVARISSSGGSTYYADSVKGRFTISRDNAKNTVYLQMNSLKPEDTAVYYCNTASNRYPGWRAEFDYWGQGTQVTVSS	low polyreactivity
QVQLVESGGGLVQAGGSLRLSCAASRIFFNGYAMGWYRQAHGSERELVAAITVSGGRTFYADSVKGRFTISRDNAKNTVYLQMNSLKPEDTAVYYCNAVPRRVRLYDYWGQGTQVNVSS	high polyreactivity
QVQLVESGGGLVQAGGSLRLSCAASRITFYPNDMGWDRQAPGKERELVAAITTNDGDTYYADSVKGRFTISRDNAKNTVYLQMISLQPEDTAVYYCAADSGSTSEYEYLGQGTQVTVSS	low polyreactivity

Sequence	polyreactivity (PSR sort gate)
QVQLVESGGGLVQAGGSLRLSCAASRLTFQDYAMGWYRQAPGKERELVAGISRSGGRTNYADSVKGRFTISRDNAKNTVYLQMNSLKPEDTAVYYCATPYRRLNTWIYDYWGQGTQVTVSS	high polyreactivity
QVQLVESGGGLVQAGGSLRLSCAASRLTFQQYAMGWYRQAPGKERELVAAITSDGASTNYADSVKGRFTISRDYAKNTVYLQMNSLKPEDTAVYYCAARRRSRQYRYDYWGQGTQVTVSS	high polyreactivity
QVQLVESGGGLVQAGGSLRLSCAASRNIFRYYVMGWYRPAPGKEREFVAAISYRAGSTYYADSVKGSFTISRDNAKNTVYLQMNSLKPEDTAFYYCNAERTRDFYEYDYWGQGTQVTVSS	low polyreactivity
QVQLVESGGGLVQAGGSLRLSCAASRNTFVPYVMGWYRQAPGKERELVAAISRRGGSTRYADSVKGRFTISRDNAKNTVYLQMNSLKPEDTAVYYCAAKRKSYYSYNFDYWGHGTQVTVSS	high polyreactivity
QVQLVESGGGLVQAGGSLRLSCAASRSIFDLYAMGWYRQAPGKEREFVAAITWRGSSTYYADSVKGRFTISRDNAKNNVYLQMNSLKPEDTAVYYCAATHNQVVARYAFIYWGQGTQVTVSS	high polyreactivity
QVQLVESGGGLVQAGGSLRLSCAASRSIFGTYAMGWYRQAPGKERELVAAISYSGGSTYYADSVKGRFTISRDNGKYTVYLQMNSLKPEDTAVYYCNKSRFYWGYYWGQGTQVTVSS	low polyreactivity
QVQLVESGGGLVQAGGSLRLSCAASRSIFRSYAMGWYTQAPGKERELVAAITSSSGSTYYADSVKGRFTISRDNAKNTVYLQMNSLKPEDTAVYYCNAPYWKSRFRAYYHWGQGTQVTVSS	high polyreactivity
QVQLVESGGGLVQAGGSLRLSCAASRSTFVRNAMGWYREAPGKESELVAASSNVGSTYYADSVKGRFTISRDTAKNTVYFQMNILKPEDTAVYYCTKQLWYHKFNYWGQGTQVTVSA	low polyreactivity
QVQLVESGGGLVQAGGSLRLSCAASRSTFYRYTMGWYIQAPGKERELVADITGSGGRTYYADSVKGRFTISRDNAKNTVYLQMNSLIPEDTAVYYCNAAYVWYRARAGSEDYWGQGTQVTVSS	high polyreactivity
QVQLVESGGGLVQAGGSLRLSCAASSIFPSNAMGLYRPAPGKERELVAAISSGGSTNYADSVKGRFTISRDNAKNTVYLQMNSLKPEDTAVYYCAAVRYYRRRTGSYYHYDYWGQGTQVTVSS	low polyreactivity
QVQLVESGGGLVQAGGSLRLSCAASVFIFAIYAMGWYRQAPGKERELVADINSDGSTYYADSVKGRFTISRDNAKNTVYLQMNSLKPEDTAVYYCNAETAGHDMDYWGQGTQVTVSS	low polyreactivity
QVQLVESGGGLVQAGGSLRLSCAASVFIFGTNAMGWYRQAPGKERELVASISSTGGSTYYADSVKGRLTISRDNAKNTVYLQMNSLIPEDNAVSFCASDHYPEYIRYVPGVDYWGQGTQVTVSS	low polyreactivity
QVQLVESGGGLVQAGGSLRLSCAASVFIFGYYAMGWYRQAPGKERELVADISWSGVSTYYADSVKGRFTISRDNAKNTVYLQMNSLKPEDNAVYYCAVGYVLTGVFQARFDYWGQGTQVTVSS	high polyreactivity
QVQLVESGGGLVQAGGSLRLSCAASVFLPYTMGWYRQAPGKERELVAAITRGGSTYYADSVKGRFTISRDNAKNTVYLQMNSLKPEDTAVYYCAKRSTFAWRGYDYWGQGTEVTVSS	high polyreactivity
QVQLVESGGGLVQAGGSLRLSCAASVFTFPPYAMGWYRQAPGKERELVAAISSAGSTKYADSVKGRFTISRDNAKNTVYLQMNSLKPEDTAVYYCAARWARSYDYWGQGTQVTVSS	low polyreactivity
QVQLVESGGGLVQAGGSLRLSCAASVFTFSRYAMGWYRQAPGKERELVAAITRGGGNTYYADSVKGRFTISRDNAKNTVYLQMHSLNPEDTAVFYCNAQVGNFGYRSGGYDYWGQGTQVTVSS	high polyreactivity
